Measurements from patent publication US20190010233A1 (JIANGSU HYAMAB PHARMACEUTICAL, published 2019).
Where two headings read alike, the source gives them in different places.

Tests used:
[1] = molecular target: T1, cyno PD-L1^ECD-hFc protein (cyno, UniProt G7PSE7 19-239); test: ELISA, 0.0003 nM mAb
T1 construct: also called Cyno Monkey PD-L1^ECD-hFc

[2] = molecular target: T2, full length human PD-L1 on cells (human, UniProt Q9NZQ7 19-290); test: cell-based or functional assay
[3] = molecular target: T1, cyno PD-L1^ECD-hFc protein; test: ELISA, 0.00003 nM mAb
[4] = molecular target: T2, full length human PD-L1 on cells; test: cell-based or functional assay; remark: listed apart in the source
[5] = molecular target: T1, cyno PD-L1^ECD-hFc protein; test: ELISA, 0.3 nM mAb
[6] = molecular target: T3, human PD-L1^ECD-hFc protein (human, UniProt Q9NZQ7 19-239, biotinylated in the PD-1 binding ELISA (Table 3) and in the Octet assay (Table 12)); test: ELISA, 0.003 nM mAb
T3 construct: The plain and the biotinylated protein are kept as one molecule; also called PD-L1-hFc; Immunogen A; not shown: human IgG Fc fragment (hFc)
T3 sequence (Q9NZQ7 19-239): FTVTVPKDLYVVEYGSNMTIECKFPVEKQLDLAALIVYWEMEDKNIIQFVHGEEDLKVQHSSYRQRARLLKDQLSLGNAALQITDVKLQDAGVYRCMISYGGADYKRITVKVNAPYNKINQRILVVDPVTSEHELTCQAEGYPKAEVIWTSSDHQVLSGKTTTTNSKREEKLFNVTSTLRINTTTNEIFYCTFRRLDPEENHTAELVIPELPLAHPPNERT

[7] = molecular target: T1, cyno PD-L1^ECD-hFc protein; test: ELISA, 3 nM mAb
[8] = molecular target: T1, cyno PD-L1^ECD-hFc protein; test: ELISA, 30 nM mAb
[9] = molecular target: T3, human PD-L1^ECD-hFc protein; test: ELISA receptor-ligand blocking assay: PD-L1 protein coated, fully human antibody titrated, blocked ligand PD-1, inhibition rate (%)
[10] = molecular target: T3, human PD-L1^ECD-hFc protein; test: ELISA, 3 nM mAb
[11] = molecular target: T3, human PD-L1^ECD-hFc protein; test: ELISA receptor-ligand blocking assay: PD-L1 protein coated, fully human antibody titrated, blocked ligand B7.1, inhibition rate (%)
[12] = molecular target: T3, human PD-L1^ECD-hFc protein; test: ELISA, 0.3 nM mAb
[13] = molecular target: T3, human PD-L1^ECD-hFc protein; test: ELISA, 0.03 nM mAb
[14] = molecular target: T3, human PD-L1^ECD-hFc protein; test: ELISA, 0.00003 nM mAb
[15] = molecular target: T2, full length human PD-L1 on cells; test: cell-based or functional assay; remark: listed apart in the source
[16] = molecular target: T1, cyno PD-L1^ECD-hFc protein; test: ELISA, 0.003 nM mAb
[17] = molecular target: T1, cyno PD-L1^ECD-hFc protein; test: ELISA, 0.03 nM mAb
[18] = molecular target: T2, full length human PD-L1 on cells; test: cell-based or functional assay; remark: listed apart in the source
[19] = molecular target: T3, human PD-L1^ECD-hFc protein; test: ELISA, 0.0003 nM mAb
[20] = molecular target: T3, human PD-L1^ECD-hFc protein; test: ELISA, 30 nM mAb
[21] = molecular target: T2, full length human PD-L1 on cells; test: cell-based or functional assay; remark: listed apart in the source

T1 sequence (G7PSE7 entry or part of it limits assumed): as the sequence (Q9NZQ7 19-239) above, with A33T, A34S, S62N, R68Q, Q82R, F173L, T185A, T192I, H215L counted along it
T2 sequence (Q9NZQ7 19-290 limits assumed): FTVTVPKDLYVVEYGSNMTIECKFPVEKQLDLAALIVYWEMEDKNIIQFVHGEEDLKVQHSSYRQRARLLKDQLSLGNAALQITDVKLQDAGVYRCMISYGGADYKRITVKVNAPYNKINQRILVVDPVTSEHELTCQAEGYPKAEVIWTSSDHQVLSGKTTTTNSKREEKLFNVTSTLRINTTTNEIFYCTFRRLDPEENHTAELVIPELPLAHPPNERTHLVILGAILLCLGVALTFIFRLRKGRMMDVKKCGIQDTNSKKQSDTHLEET

B1: fully human anti-PD-L1 antibody 192D9E7 (antibody, human IgG4 S228P, kappa, V domains shown)
VH: EVQLVESGGGLVQPGGSLRLSCAASGFTFSSYWMSWVRQAPGKGLEWVADIKQDGSEKYYVDSVKGRFTISRDNAKNSLYLQMNSLRAEDTAVYYCTRDKPHWGGVMDAWGQGTSVTVSS
VL: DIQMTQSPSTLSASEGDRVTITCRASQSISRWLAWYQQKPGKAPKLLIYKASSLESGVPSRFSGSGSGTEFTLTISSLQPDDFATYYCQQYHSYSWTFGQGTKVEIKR
notes: also called 192D9E7 (fully human); 192D9F7
OD450 nm [1]: 0.348
IFN-γ (pg/mL), MLR, 0.001 µg/mL mAb [2]: 9030 pg/mL
IFN-γ (pg/mL), MLR, 0.01 µg/mL mAb [2]: 11200 pg/mL
IFN-γ (pg/mL), MLR, 0.1 µg/mL mAb [2]: 19600 pg/mL
IFN-γ (pg/mL), MLR, 1 µg/mL mAb [2]: 22900 pg/mL
IFN-γ (pg/mL), MLR, 10 µg/mL mAb [2]: 15500 pg/mL
OD450 nm [3]: 0.324
IL-2 (pg/mL), MLR, 0.001 µg/mL mAb [4]: 210 pg/mL
IL-2 (pg/mL), MLR, 0.01 µg/mL mAb [4]: 341 pg/mL
IL-2 (pg/mL), MLR, 0.1 µg/mL mAb [4]: 713 pg/mL
IL-2 (pg/mL), MLR, 1 µg/mL mAb [4]: 721 pg/mL
IL-2 (pg/mL), MLR, 10 µg/mL mAb [4]: 770 pg/mL
OD450 nm [5]: 2.55
OD450 nm [6]: 0.322
OD450 nm [7]: 2.66
OD450 nm [8]: 2.54
IC50 (read off the curve) [9]: ~1 nM
OD450 nm [10]: 2.67
IC50 (read off the curve) [11]: ~0.8 nM
OD450 nm [12]: 2.52
OD450 nm [13]: 0.786
OD450 nm [14]: 0.287
IFN-γ (pg/mL), MLR, 0.001 µg/mL mAb [15]: 592 pg/mL
IFN-γ (pg/mL), MLR, 0.01 µg/mL mAb [15]: 915 pg/mL
IFN-γ (pg/mL), MLR, 0.1 µg/mL mAb [15]: 1870 pg/mL
IFN-γ (pg/mL), MLR, 1 µg/mL mAb [15]: 2760 pg/mL
IFN-γ (pg/mL), MLR, 10 µg/mL mAb [15]: 2270 pg/mL
OD450 nm [16]: 0.376
OD450 nm [17]: 0.953
IFN-γ (pg/mL), T cell stimulation assay, 0.001 µg/mL mAb [18]: 6150 pg/mL
IFN-γ (pg/mL), T cell stimulation assay, 0.01 µg/mL mAb [18]: 13100 pg/mL
IFN-γ (pg/mL), T cell stimulation assay, 0.1 µg/mL mAb [18]: 11500 pg/mL
IFN-γ (pg/mL), T cell stimulation assay, 1 µg/mL mAb [18]: 15200 pg/mL
OD450 nm [19]: 0.285
OD450 nm [20]: 2.59

B2: fully human anti-PD-L1 antibody 73G11B3 (antibody, human IgG4 S228P, kappa, V domains shown)
VH: EVQLVESGGGLVQPGGSLRLSCVVSGFTFSSYWMSWVRQTPGKGLEWVANIKQDGSEKYYVDSVKGRLTISRDNAKNSLYLQMNSLRAEDTAVYYCVRDRAVPGTGALDIWGQGTMVTVSS
VL: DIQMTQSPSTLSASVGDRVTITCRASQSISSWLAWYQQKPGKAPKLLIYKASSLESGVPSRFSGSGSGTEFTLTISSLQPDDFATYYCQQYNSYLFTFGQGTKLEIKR
notes: also called 73G11B3 (fully human)
OD450 nm [1]: 0.283
IFN-γ (pg/mL), T cell stimulation assay, 0.001 µg/mL mAb [21]: 5120 pg/mL
IFN-γ (pg/mL), T cell stimulation assay, 0.01 µg/mL mAb [21]: 6340 pg/mL
IFN-γ (pg/mL), T cell stimulation assay, 0.1 µg/mL mAb [21]: 9360 pg/mL
IFN-γ (pg/mL), T cell stimulation assay, 1 µg/mL mAb [21]: 8790 pg/mL
IFN-γ (pg/mL), T cell stimulation assay, 10 µg/mL mAb [21]: 13100 pg/mL
IFN-γ (pg/mL), MLR, 0.001 µg/mL mAb [2]: 9790 pg/mL
IFN-γ (pg/mL), MLR, 0.01 µg/mL mAb [2]: 10700 pg/mL
IFN-γ (pg/mL), MLR, 0.1 µg/mL mAb [2]: 21700 pg/mL
IFN-γ (pg/mL), MLR, 1 µg/mL mAb [2]: 21700 pg/mL
IFN-γ (pg/mL), MLR, 10 µg/mL mAb [2]: 16900 pg/mL
OD450 nm [3]: 0.308
IL-2 (pg/mL), MLR, 0.001 µg/mL mAb [4]: 215 pg/mL
IL-2 (pg/mL), MLR, 0.01 µg/mL mAb [4]: 274 pg/mL
IL-2 (pg/mL), MLR, 0.1 µg/mL mAb [4]: 654 pg/mL
IL-2 (pg/mL), MLR, 1 µg/mL mAb [4]: 729 pg/mL
IL-2 (pg/mL), MLR, 10 µg/mL mAb [4]: 601 pg/mL
OD450 nm [5]: 2.52
OD450 nm [6]: 0.403
OD450 nm [7]: 2.65
OD450 nm [8]: 2.6
IC50 (read off the curve) [9]: ~1 nM
OD450 nm [10]: 2.72
IC50 (read off the curve) [11]: ~0.9 nM
OD450 nm [12]: 2.48
OD450 nm [13]: 0.855
OD450 nm [14]: 0.256
OD450 nm [16]: 0.358
OD450 nm [17]: 1
IFN-γ (pg/mL), T cell stimulation assay, 0.001 µg/mL mAb [18]: 6780 pg/mL
IFN-γ (pg/mL), T cell stimulation assay, 0.01 µg/mL mAb [18]: 10900 pg/mL
IFN-γ (pg/mL), T cell stimulation assay, 0.1 µg/mL mAb [18]: 13100 pg/mL
IFN-γ (pg/mL), T cell stimulation assay, 1 µg/mL mAb [18]: 13500 pg/mL
OD450 nm [19]: 0.254
OD450 nm [20]: 2.67

B3: fully human anti-PD-L1 antibody 127D2F3 (antibody, human IgG4 S228P, kappa, V domains shown)
VH: EVQLVESGGGLVQPGGSLRLSCVASGFTFSSYWMSWVRQAPGKGLEWVANIKQDGSEKYYVDSVKGRLTISRDNAKNSLYLQMKSLRAEDTAVYYCARDPIYSSYFDYWGQGILVTVSS
VL: DIQMTQSPSSLSASVGDRVTITCRASQSISNYLNWYQQKPGKAPKLLIYAASSLQSGVPSRFSGSGSGTDFTLTISSLQPEDFAAYYCQQSYGIPFTFGPGTKVDIKR
notes: also called 127D2F3 (fully human)
OD450 nm [1]: 0.28
OD450 nm [3]: 0.297
OD450 nm [5]: 2.49
OD450 nm [6]: 0.329
OD450 nm [7]: 2.6
OD450 nm [8]: 2.59
IC50 (read off the curve) [9]: ~2 nM
OD450 nm [10]: 2.68
IC50 (read off the curve) [11]: ~1 nM
OD450 nm [12]: 2.48
OD450 nm [13]: 0.852
OD450 nm [14]: 0.281
OD450 nm [16]: 0.332
OD450 nm [17]: 0.889
IFN-γ (pg/mL), T cell stimulation assay, 0.001 µg/mL mAb [18]: 5090 pg/mL
IFN-γ (pg/mL), T cell stimulation assay, 0.01 µg/mL mAb [18]: 11200 pg/mL
IFN-γ (pg/mL), T cell stimulation assay, 0.1 µg/mL mAb [18]: 9340 pg/mL
IFN-γ (pg/mL), T cell stimulation assay, 1 µg/mL mAb [18]: 14100 pg/mL
OD450 nm [19]: 0.264
OD450 nm [20]: 2.59
